Data from PMC10374969, “SVCT2/SLC23A2 is a sodium-dependent urate transporter: functional properties and practical application” (The Journal of Biological Chemistry, 2023).

Key:
[1] = tested on: T1, O=c1[nH]c(=O)c2[nH]c(=O)[nH]c2[nH]1; assay: cells, lysate or membranes; format: cell-based, Mus musculus; conditions: pH 10, Na+ Krebs-Ringer buffer, 37 °C, 5 min, 0-3 mM urate (not saturated), labelled compound
T1 construct: full-length, 648 aa, C-terminal EGFP tag (pEGFP-N1), transiently expressed in HEK293 cells

[2] = tested on: T2, O=c1[nH]c(=O)c2[nH]c(=O)[nH]c2[nH]1; assay: cells, lysate or membranes; format: cell-based, Homo sapiens; conditions: pH 10, Na+ Krebs-Ringer buffer, 37 °C, 5 min, 0-3 mM urate (not saturated), labelled compound
T2 construct: full-length wild type, 650 aa, C-terminal EGFP tag (pEGFP-N1), transiently expressed in HEK293 cells

Question: Which Km [1] does the source give for “mouse Svct2 (Svct2/Slc23a2) (Mus musculus)” here?
Answer: 3.16 mM

Question: With “human SVCT2 (SVCT2/SLC23A2) (Homo sapiens)” as the substance, how does the Km [2] read?
Answer: 3.86 mM
